Assay results as given in publication PMC9559407, “Enzyme linked oligonucleotide assay for the sensitive detection of SARS-CoV-2 variants”.

Molecular target: SARS-CoV-2 spike RBD (called RBD S glycoprotein) (SARS-CoV-2 (2019-nCoV), UniProt P0DTC2 319-541)
Test: direct ELONA
Details: protein: commercial; label: 5'-biotin

B1: CoV2-RBD-1C (ssDNA)
DNA: CAGCACCGACCTTGTGCTTTGGGAGTGCTGGTCCAAGGGCGTTAATGGACA
binding result: binds
